Each block holds one binder with its values, some of them ahead of it.
Assays:
Gal4^AD-Met30 isolates = target: T1, Gal4^AD-Met30 isolates (yeast, UniProt P39014 1-640, limits assumed); assay: yeast two-hybrid
T1 construct: Library clones; all contained the F-box; also called Met30 two hybrid isolates; full length Met30 in the two hybrid system
T1 sequence: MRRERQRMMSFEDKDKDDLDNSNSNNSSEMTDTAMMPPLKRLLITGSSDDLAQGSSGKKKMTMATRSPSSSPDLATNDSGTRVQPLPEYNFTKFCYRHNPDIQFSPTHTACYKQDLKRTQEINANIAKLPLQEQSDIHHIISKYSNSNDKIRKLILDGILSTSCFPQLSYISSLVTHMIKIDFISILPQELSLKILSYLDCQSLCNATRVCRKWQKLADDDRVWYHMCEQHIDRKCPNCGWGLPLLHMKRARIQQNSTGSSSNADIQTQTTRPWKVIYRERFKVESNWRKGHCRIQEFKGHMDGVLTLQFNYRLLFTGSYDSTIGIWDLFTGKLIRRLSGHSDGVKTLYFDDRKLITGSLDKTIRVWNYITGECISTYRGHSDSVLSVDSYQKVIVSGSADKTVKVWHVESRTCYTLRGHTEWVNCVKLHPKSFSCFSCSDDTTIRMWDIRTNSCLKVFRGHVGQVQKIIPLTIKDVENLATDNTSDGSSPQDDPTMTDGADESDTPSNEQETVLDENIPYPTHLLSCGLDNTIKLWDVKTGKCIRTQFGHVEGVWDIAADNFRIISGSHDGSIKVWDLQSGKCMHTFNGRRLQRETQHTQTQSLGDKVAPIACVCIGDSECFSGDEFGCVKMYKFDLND

Gal4^AD-Cdc4 isolates = target: T2, Gal4^AD-Cdc4 isolates (budding yeast, UniProt P07834 1-779, limits assumed); assay: yeast two-hybrid
T2 construct: Library clones; all contained the F-box; also called Cdc4 two hybrid isolates; full length Cdc4 in the two hybrid system
T2 sequence: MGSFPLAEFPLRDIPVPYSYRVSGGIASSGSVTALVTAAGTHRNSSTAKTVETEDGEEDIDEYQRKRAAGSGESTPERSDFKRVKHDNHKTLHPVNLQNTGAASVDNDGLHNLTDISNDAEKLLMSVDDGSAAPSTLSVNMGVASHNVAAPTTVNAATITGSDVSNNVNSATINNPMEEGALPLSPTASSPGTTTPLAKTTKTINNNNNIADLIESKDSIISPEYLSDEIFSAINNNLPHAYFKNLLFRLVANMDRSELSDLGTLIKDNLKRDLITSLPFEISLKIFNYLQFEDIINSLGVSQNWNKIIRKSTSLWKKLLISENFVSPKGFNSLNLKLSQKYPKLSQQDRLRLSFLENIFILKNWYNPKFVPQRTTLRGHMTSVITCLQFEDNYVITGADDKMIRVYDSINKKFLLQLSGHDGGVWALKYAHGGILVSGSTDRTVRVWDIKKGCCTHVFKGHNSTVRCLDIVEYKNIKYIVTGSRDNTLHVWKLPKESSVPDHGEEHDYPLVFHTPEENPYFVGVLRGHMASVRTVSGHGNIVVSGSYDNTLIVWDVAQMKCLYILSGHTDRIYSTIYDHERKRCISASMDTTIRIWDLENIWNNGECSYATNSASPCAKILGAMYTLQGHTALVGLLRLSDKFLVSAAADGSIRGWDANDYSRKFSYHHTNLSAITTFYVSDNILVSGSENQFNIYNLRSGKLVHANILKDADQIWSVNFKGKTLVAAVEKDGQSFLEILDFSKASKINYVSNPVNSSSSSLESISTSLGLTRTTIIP

Met30 = target: T3, Met30 (yeast, UniProt P39014 1-640); assay: anti-MYC immunoprecipitation from yeast lysate, immunoblot
T3 construct: Endogenous protein in yeast lysates, detected with anti-Met30 antibodies; also called endogenous Met30
T3 sequence: T1 sequence

Cdc4 = target: T4, Cdc4 (budding yeast, UniProt P07834 1-779); assay: as above
T4 construct: Endogenous protein in yeast lysates, detected with anti-Cdc4 antibodies; also called endogenous Cdc4
T4 sequence: T2 sequence

Grr1 = target: T5, Grr1 (budding yeast, UniProt P24814 1-1151); assay: as above
T5 construct: Endogenous protein in yeast lysates, detected with anti-Grr1 antibodies; also called endogenous Grr1
T5 sequence: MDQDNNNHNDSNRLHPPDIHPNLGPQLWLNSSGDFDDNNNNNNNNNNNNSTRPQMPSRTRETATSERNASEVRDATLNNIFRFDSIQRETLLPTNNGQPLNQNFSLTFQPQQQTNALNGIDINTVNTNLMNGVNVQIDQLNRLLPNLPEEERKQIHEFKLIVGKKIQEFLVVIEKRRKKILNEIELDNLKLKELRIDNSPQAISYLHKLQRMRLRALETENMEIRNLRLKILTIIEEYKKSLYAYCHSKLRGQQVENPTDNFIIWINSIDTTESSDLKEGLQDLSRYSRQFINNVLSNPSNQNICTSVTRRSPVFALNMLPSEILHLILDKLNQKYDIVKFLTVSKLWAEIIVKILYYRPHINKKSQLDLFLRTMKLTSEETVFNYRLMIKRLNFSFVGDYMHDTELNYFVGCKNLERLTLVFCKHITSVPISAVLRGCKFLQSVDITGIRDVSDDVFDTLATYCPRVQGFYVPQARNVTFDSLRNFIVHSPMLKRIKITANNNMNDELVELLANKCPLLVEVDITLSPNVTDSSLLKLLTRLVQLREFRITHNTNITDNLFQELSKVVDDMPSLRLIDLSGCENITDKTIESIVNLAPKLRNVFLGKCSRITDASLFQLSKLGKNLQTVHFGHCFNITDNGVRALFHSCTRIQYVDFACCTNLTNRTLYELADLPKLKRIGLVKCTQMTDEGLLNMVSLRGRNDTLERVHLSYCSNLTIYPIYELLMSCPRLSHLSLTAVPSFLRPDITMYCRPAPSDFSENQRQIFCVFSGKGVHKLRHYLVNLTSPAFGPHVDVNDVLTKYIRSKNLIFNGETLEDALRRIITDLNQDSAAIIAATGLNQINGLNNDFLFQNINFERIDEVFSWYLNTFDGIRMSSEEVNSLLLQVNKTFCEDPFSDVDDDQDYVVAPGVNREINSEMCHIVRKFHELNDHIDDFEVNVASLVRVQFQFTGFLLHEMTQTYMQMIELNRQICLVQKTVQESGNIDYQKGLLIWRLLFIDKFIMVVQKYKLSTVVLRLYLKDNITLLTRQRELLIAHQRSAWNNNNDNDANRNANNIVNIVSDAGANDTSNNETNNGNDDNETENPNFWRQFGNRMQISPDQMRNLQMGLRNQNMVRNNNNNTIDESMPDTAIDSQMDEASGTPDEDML

binding result (Gal4^AD-Met30 isolates): no binding | binding result (Gal4^AD-Cdc4 isolates): no binding
B1: Gal4^DBD-Cdc53^ΔN (other, not shown: small tags and cut ends)
chain: MALNKVLITDHIEKLENEFVVLLDARDIEKITSLYALIRRDFTLIPRMASVFENYVKKTGENEISSLLAMHKHNIMKNENANPKKLALMTAHSLSPKDYIKKLLEVHDIFSKIFNESFPDDIPLAKALDNACGAFININEFALPAGSPKSATSKTSEMLAKYSDILLKKATKPEVASDMSDEDIITIFKYLTDKDAFETHYRRLFAKRLIHGTSTSAEDEENIIQRLQAANSMEYTGKITKMFQDIRLSKILEDDFAVALKNEPDYSKAKYPDLQPFVLAENMWPFSYQEVEFKLPKELVPSHEKLKESYSQKHNGRILKWLWPLCRGELKADIGKPGRMPFNFTVTLFQMAILLLYNDADVLTLENIQEGTSLTIQHIAAAMVPFIKFKLIQQVPPGLDALVKPETQFKLSRPYKALKTNINFASGVKNDILQSLSGGGHDNHGNKLGNKRLTEDERIEKELNTERQIFLEACIVRIMKAKRNLPHTTLVNECIAQSHQRFNAKVSMVKRAIDSLIQKGYLQRGDDGESYAYLA
notes: Made by NcoI digestion and religation; also called pMT954; Cdc53 lacking the N-terminal 280 residues

binding result (Met30): no binding | binding result (Cdc4): no binding | binding result (Grr1): no binding
B2: Cdc53^Δ9-280 (MYC-tagged) (other, not shown: small tags and cut ends)
chain: MSETLPRSMALNKVLITDHIEKLENEFVVLLDARDIEKITSLYALIRRDFTLIPRMASVFENYVKKTGENEISSLLAMHKHNIMKNENANPKKLALMTAHSLSPKDYIKKLLEVHDIFSKIFNESFPDDIPLAKALDNACGAFININEFALPAGSPKSATSKTSEMLAKYSDILLKKATKPEVASDMSDEDIITIFKYLTDKDAFETHYRRLFAKRLIHGTSTSAEDEENIIQRLQAANSMEYTGKITKMFQDIRLSKILEDDFAVALKNEPDYSKAKYPDLQPFVLAENMWPFSYQEVEFKLPKELVPSHEKLKESYSQKHNGRILKWLWPLCRGELKADIGKPGRMPFNFTVTLFQMAILLLYNDADVLTLENIQEGTSLTIQHIAAAMVPFIKFKLIQQVPPGLDALVKPETQFKLSRPYKALKTNINFASGVKNDILQSLSGGGHDNHGNKLGNKRLTEDERIEKELNTERQIFLEACIVRIMKAKRNLPHTTLVNECIAQSHQRFNAKVSMVKRAIDSLIQKGYLQRGDDGESYAYLA
notes: Deletion built with natural and engineered restriction sites; also called CDC53^MΔ9-280; pMT1850
